Measurements as given in patent publication US20220073618A1 (NANJING GENSCRIPT BIOTECH, published 2022).

B1: AH01947 (antibody, human IgG1, V domains shown)
VH: QVQLQESGPGLVKPSQTLSLTCTVSGYSITSGYTWHWIRQHPGKGLEWIGYIHYSGSTKYNPSLKSRVTISVDTSKNQFSLKLSSVTAADTAVYYCARNSLFASWGQGTLVTVSS
VL: DIVLTQSPDSLAVSLGERATINCRASESVDTYGDSFMHWFQQKPGQPPKLLIYRASNLESGVPDRFSGSGSGTDFTLTISSLQAEDVAVYYCQQSNEAPYTFGGGTKLEIK
notes: also called mPD-L1Ab-CBM clone AH01947
B2: AH02030 (antibody, human IgG1, V domains shown)
VH: QVQLQESGPGLVKPSQTLSLTCTVTGYSITSGYTWHWIRQHPGKGLEWIGYIHYSGSTKYNPSLKSRFTITRDTSKNQFSLKLSSVTAADTAVYYCARNSLFASWGQGTLVTVSS
VL: DIVLTQSPDSLAVSLGERATINCRASESVDTYGDSFMHWYQQKPGQPPKLLIYRASNLESGVPDRFSGSGSRTDFTLTISSLQAEDVAVYYCQQSNEAPYTFGGGTKLEIK
notes: also called mPD-L1Ab-5BM clone AH02030
B3: AH02033 (antibody, human IgG1, V domains shown)
VH: QVQLQESGPGLVKPSQTLSLTCTVTGYSITSGYTWHWIRQHPGKGLEWMGYIHYSGSTKYNPSLKSRFTISRDTSKNQFSLKLSSVTAADTAVYYCARNSLFASWGQGTLVTVSS
VL: DIVLTQSPDSLAVSLGERATINCRASESVDTYGDSFMHWFQQKPGQPPKLLIYRASNLESGIPDRFSGSGSGTDFTLTISSLQAEDVAVYYCQQSNEAPYTFGGGTKLEIK
notes: also called mPD-L1Ab-5BM clone AH02033
B4: Chimeric antibody (antibody, V domains shown)
VH: DVQLQESGPDLVKPSQSLSLTCTVTGYSITSGYTWHWIRQFPGNKLEWMGYIHYSGSTKYNPSLKSRFSITRDTSKNQFFLQLNSMTAEDTATYYCARNSLFASWGHGTLVTVSA
VL: DIVLTQSPASLAVSLGQRATISCRASESVDTYGDSFMHWFQQKPGQPPKLLIYRASNLESGIPARFSGSGSRTDFTLTINPVEADDVATYYCQQSNEAPYTFGGGTKLEIK
notes: also called mPD-L1Ab-Chim
B5: AH01950 (prokaryotically expressed antibody product) (Fab, V domains shown)
VH: QVQLQESGPGLVKPSQTLSLTCTVSGYSITSGYTWHWIRQHPGKGLEWIGYIHYSGSTKYNPSLKSRVTISRDTSKNQFSLKLSSVTAADTAVYYCARNSLFASWGQGTLVTVSS
VL: DIVLTQSPDSLAVSLGERATINCRASESVDTYGDSFMHWFQQKPGQPPKLLIYRASNLESGVPDRFSGSGSGTDFTLTISSLQAEDVAVYYCQQSNEAPYTFGGGTKLEIK
B6: AH01946 (prokaryotically expressed antibody product) (Fab, V domains shown)
VH: QVQLQESGPGLVKPSQTLSLTCTVSGYSITSGYTWHWIRQHPGKGLEWIGYIHYSGSTKYNPSLKSRVTISRDTSKNQFSLKLSSMTAADTAVYYCARNSLFASWGQGTLVTVSS
VL: DIVLTQSPDSLAVSLGERATINCRASESVDTYGDSFMHWFQQKPGQPPKLLIYRASNLESGVPDRFSGSGSGTDFTLTISSVQAEDVAVYYCQQSNEAPYTFGGGTKLEIK
B7: AH01947 (prokaryotically expressed antibody product) (Fab, V domains shown)
VH: QVQLQESGPGLVKPSQTLSLTCTVSGYSITSGYTWHWIRQHPGKGLEWIGYIHYSGSTKYNPSLKSRVTISVDTSKNQFSLKLSSVTAADTAVYYCARNSLFASWGQGTLVTVSS
VL: DIVLTQSPDSLAVSLGERATINCRASESVDTYGDSFMHWFQQKPGQPPKLLIYRASNLESGVPDRFSGSGSGTDFTLTISSLQAEDVAVYYCQQSNEAPYTFGGGTKLEIK
B8: AH01963 (prokaryotically expressed antibody product) (Fab, V domains shown)
VH: QVQLQESGPGLVKPSQTLSLTCTVSGYSITSGYTWHWIRQHPGKGLEWIGYIHYSGSTKYNPSLKSRVTISRDTSKNQFSLKLSSVTAADTAVYYCARNSLFASWGQGTLVTVSS
VL: DIVLTQSPDSLAVSLGERATINCRASESVDTYGDSFMHWYQQKPGQPPKLLIYRASNLESGVPDRFSGSGSGTDFTLTISSVQAEDVAVYYCQQSNEAPYTFGGGTKLEIK
B9: AH02029 (prokaryotically expressed antibody product) (Fab, V domains shown)
VH: QVQLQESGPGLVKPSQTLSLTCTVTGYSITSGYTWHWIRQHPGKGLEWIGYIHYSGSTKYNPSLKSRVSISRDTSKNQFSLKLSSVTAADTAVYYCARNSLFASWGQGTLVTVSS
VL: DIVLTQSPDSLAVSLGERATINCRASESVDTYGDSFMHWYQQKPGQPPKLLIYRASNLESGVPDRFSGSGSGTDFTLTISSLQAEDVAVYYCQQSNEAPYTFGGGTKLEIK
B10: AH02030 (prokaryotically expressed antibody product) (Fab, V domains shown)
VH: QVQLQESGPGLVKPSQTLSLTCTVTGYSITSGYTWHWIRQHPGKGLEWIGYIHYSGSTKYNPSLKSRFTITRDTSKNQFSLKLSSVTAADTAVYYCARNSLFASWGQGTLVTVSS
VL: DIVLTQSPDSLAVSLGERATINCRASESVDTYGDSFMHWYQQKPGQPPKLLIYRASNLESGVPDRFSGSGSRTDFTLTISSLQAEDVAVYYCQQSNEAPYTFGGGTKLEIK
B11: AH02033 (prokaryotically expressed antibody product) (Fab, V domains shown)
VH: QVQLQESGPGLVKPSQTLSLTCTVTGYSITSGYTWHWIRQHPGKGLEWMGYIHYSGSTKYNPSLKSRFTISRDTSKNQFSLKLSSVTAADTAVYYCARNSLFASWGQGTLVTVSS
VL: DIVLTQSPDSLAVSLGERATINCRASESVDTYGDSFMHWFQQKPGQPPKLLIYRASNLESGIPDRFSGSGSGTDFTLTISSLQAEDVAVYYCQQSNEAPYTFGGGTKLEIK
B12: Chimeric antibody (as ranked in Table 2) (Fab, V domains shown)
VH: DVQLQESGPDLVKPSQSLSLTCTVTGYSITSGYTWHWIRQFPGNKLEWMGYIHYSGSTKYNPSLKSRFSITRDTSKNQFFLQLNSMTAEDTATYYCARNSLFASWGHGTLVTVSA
VL: DIVLTQSPASLAVSLGQRATISCRASESVDTYGDSFMHWFQQKPGQPPKLLIYRASNLESGIPARFSGSGSRTDFTLTINPVEADDVATYYCQQSNEAPYTFGGGTKLEIK
B13: AH01964 (prokaryotically expressed antibody product) (Fab, V domains shown)
VH: QVQLQESGPGLVKPSQTLSLTCTVSGYSITSGYTWHWIRQHPGKGLEWIGYIHYSGSTKYNPSLKSRVTISRDTSKNQFSLKLSSVTAADTAVYYCARNSLFASWGQGTLVTVSS
VL: DIVMTQSPDSLAVSLGERATINCRASESVDTYGDSFMHWYQQKPGQPPKLLIYRASNLESGVPDRFSGSGSGTDFTLTISSLQAEDVAVYYCQQSNEAPYTFGGGTKL
B14: AH01964 (antibody, human IgG1, V domains shown)
VH: QVQLQESGPGLVKPSQTLSLTCTVSGYSITSGYTWHWIRQHPGKGLEWIGYIHYSGSTKYNPSLKSRVTISRDTSKNQFSLKLSSVTAADTAVYYCARNSLFASWGQGTLVTVSS
VL: DIVMTQSPDSLAVSLGERATINCRASESVDTYGDSFMHWYQQKPGQPPKLLIYRASNLESGVPDRFSGSGSGTDFTLTISSLQAEDVAVYYCQQSNEAPYTFGGGTKL
notes: also called mPD-L1Ab-CBM clone AH01964

What was measured:
[1] = target: T1, PD-L1-HIS recombinant protein (human, UniProt Q9NZQ7 19-238, limits assumed); experiment: SPR (Biacore 8K), antibody captured on chip, PD-L1-HIS analyte 2.5-80 nM, 1:1 binding model
T1 construct: not shown: His tag
T1 sequence (Q9NZQ7 19-238 limits assumed): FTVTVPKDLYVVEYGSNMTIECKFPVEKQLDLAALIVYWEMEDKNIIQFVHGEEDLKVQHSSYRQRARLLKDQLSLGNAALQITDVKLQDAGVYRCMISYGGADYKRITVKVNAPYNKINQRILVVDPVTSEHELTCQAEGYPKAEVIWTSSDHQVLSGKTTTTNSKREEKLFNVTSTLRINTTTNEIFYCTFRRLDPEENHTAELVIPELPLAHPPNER
Method: The chip surface was equilibrated with HBS-EP buffer at a flow rate of 10 μl/min for 5 min, and then a 1:1 mixture of “NHS+EDC” was injected at a flow rate of 10 μl/min for 420 sec to activate the chip. The capture antibody (goat anti-murine IgG) diluted in 10 mM sodium acetate buffer was injected for about 420 sec at a flow rate of 10 μl/min for coupling, and finally ethanolamine was injected for 420 sec at a flow rate of 10 μl/min to block the surface.
Three pre-cycles were performed with the HBS-EP buffer as a sample to balance the chip to stabilize the baseline. The antibody diluted in HBS-EP buffer was injected for 30 sec at a flow rate of 10 μl/min (where the antibody-antigen binding signal was controlled to about 100 RU by adjusting the capture time between 0-5 min), and then the chip was equilibrated with the buffer for 1 min. The low-concentration antigen 2.5 nM PD-L1-HIS was injected at a flow rate of 30 μl/min for 240/300 seconds, to allow the antigen to bind to the antibody, and then the buffer was injected at a flow rate of 30 μl/min for 720/600 seconds for dissociation. 50 mM HCl were injected three times each for 15 s at a flow rate of 100 μl/min for regeneration, to complete one cycle. The antigen concentration was changed (such as 5 nM PD-L1-HIS) to carry out the cycle for measurement at a next gradient concentration until all gradient concentrations (2.5 nM, 5 nM, 10 nM, 20 nM, 40 nM, 80 nM PD-L1-HIS) and the replicate (such as 10 nM PD-L1-HIS) were tested.
The experimental data was double subtracted (minus the background values of the control channel and zero concentration), and fitted to the “1:1 binding” model in the Biacore 8K evaluation software. Biacore 8K was used to determine the affinity of the antibody to the PD-L1-HIS recombinant protein.

human PD-L1 protein [2] = target: T2, human PD-L1 protein (human, UniProt Q9NZQ7 19-238, limits assumed); experiment: ELISA on human PD-L1 protein; control antibody stored at -80 C
T2 sequence (Q9NZQ7 19-238 limits assumed): as above
Method: (§1) The antibody samples were treated for 20 min at various temperature gradients respectively, and then centrifuged to remove the pellet. Then the amount of remaining antibody was evaluated by ELISA. (The temperature gradient includes: room temperature, 30° C., 40° C., 50° C., 60° C., 70° C., […]) (FIG. 4)

human PD-L1 protein [3] = target: T2, human PD-L1 protein; experiment: ELISA on human PD-L1 protein; antibody treated for 20 min (overlapping curves, room temperature to 60 C by the legend, not told apart)
Method: as §1

human PD-L1 protein [4] = target: T2, human PD-L1 protein; experiment: ELISA on human PD-L1 protein; antibody kept at 40 C for 0 (D0), 7 (D7) or 14 (D14) days
Method: The antibody samples were treated separately at 40° C., and then centrifuged to remove the pellet. Then the amount of remaining antibody was evaluated by ELISA. (test after treatment at 40° C. for 7 days (D7) and 14 days (D14) separately; for each test, the untreated sample (D0) stored at −80° C. is used as a control) (FIG. 3)

PD-L1/Fc [5] = target: T3, PD-L1/Fc (UniProt Q9NZQ7 19-238, limits assumed); experiment: SPR (Biacore 8K), prokaryotically expressed antibody as ligand, PD-L1/Fc as analyte, 1:1 binding model
T3 construct: not shown: Fc part
T3 sequence (Q9NZQ7 19-238 limits assumed): as above

PD-L1/Fc [6] = target: T3, PD-L1/Fc; experiment: SPR (Biacore 8K), antibody as ligand, PD-L1/Fc as analyte, 1:1 binding model

Binder	Kd [1] [pM]	koff [1] [s⁻¹]	kon [1] [M⁻¹ s⁻¹]	Kd (PD-L1/Fc [5]) [pM]	koff (PD-L1/Fc [5]) [s⁻¹]	kon (PD-L1/Fc [5]) [M⁻¹ s⁻¹]	further results
B1	3110	0.000714	230000	–	–	–	–
B2	1170	0.000216	185000	–	–	–	–
B3	903	0.000166	184000	–	–	–	–
B4	1270	0.000219	172000	–	–	–	EC50 (read off the curve) (human PD-L1 protein [2]): ~10 ng/mL; EC50 (read off the curve) (human PD-L1 protein [3]): ~8 ng/mL; EC50 (read off the curve) (human PD-L1 protein [4]): ~10 ng/mL
B5	–	–	–	36.7	1.9e-05	518000	–
B6	–	–	–	9.4	4.72e-06	502000	–
B7	–	–	–	82.2	4.38e-05	533000	–
B8	–	–	–	34.4	1.63e-05	474000	–
B9	–	–	–	56.8	1.93e-05	339000	–
B10	–	–	–	43.9	1.58e-05	359000	–
B11	–	–	–	0.0676	2.71e-08	401000	–
B12	–	–	–	–	–	–	Kd (PD-L1/Fc [6]): 58 pM; koff (PD-L1/Fc [6]): 2.03e-05 s⁻¹; kon (PD-L1/Fc [6]): 349000 M⁻¹ s⁻¹
B13	–	–	–	46.8	2.48e-05	530000	–
B14	1760	0.00037	210000	–	–	–	–
